Measured values reported in article PMC4808492.
Like-named read-outs stand apart in the source and are kept apart here.

Experiments:
[1] = target: cation-independent M6P receptor (CI-MPR), on an affinity column (UniProt P08169); experiment: CI-MPR affinity column
[2] = target: cation-independent M6P receptor (CI-MPR), on an affinity column (UniProt P08169); experiment: CI-MPR affinity column; remark: listed apart in the source

UniProt P08169, sequence (P08169 45-2499): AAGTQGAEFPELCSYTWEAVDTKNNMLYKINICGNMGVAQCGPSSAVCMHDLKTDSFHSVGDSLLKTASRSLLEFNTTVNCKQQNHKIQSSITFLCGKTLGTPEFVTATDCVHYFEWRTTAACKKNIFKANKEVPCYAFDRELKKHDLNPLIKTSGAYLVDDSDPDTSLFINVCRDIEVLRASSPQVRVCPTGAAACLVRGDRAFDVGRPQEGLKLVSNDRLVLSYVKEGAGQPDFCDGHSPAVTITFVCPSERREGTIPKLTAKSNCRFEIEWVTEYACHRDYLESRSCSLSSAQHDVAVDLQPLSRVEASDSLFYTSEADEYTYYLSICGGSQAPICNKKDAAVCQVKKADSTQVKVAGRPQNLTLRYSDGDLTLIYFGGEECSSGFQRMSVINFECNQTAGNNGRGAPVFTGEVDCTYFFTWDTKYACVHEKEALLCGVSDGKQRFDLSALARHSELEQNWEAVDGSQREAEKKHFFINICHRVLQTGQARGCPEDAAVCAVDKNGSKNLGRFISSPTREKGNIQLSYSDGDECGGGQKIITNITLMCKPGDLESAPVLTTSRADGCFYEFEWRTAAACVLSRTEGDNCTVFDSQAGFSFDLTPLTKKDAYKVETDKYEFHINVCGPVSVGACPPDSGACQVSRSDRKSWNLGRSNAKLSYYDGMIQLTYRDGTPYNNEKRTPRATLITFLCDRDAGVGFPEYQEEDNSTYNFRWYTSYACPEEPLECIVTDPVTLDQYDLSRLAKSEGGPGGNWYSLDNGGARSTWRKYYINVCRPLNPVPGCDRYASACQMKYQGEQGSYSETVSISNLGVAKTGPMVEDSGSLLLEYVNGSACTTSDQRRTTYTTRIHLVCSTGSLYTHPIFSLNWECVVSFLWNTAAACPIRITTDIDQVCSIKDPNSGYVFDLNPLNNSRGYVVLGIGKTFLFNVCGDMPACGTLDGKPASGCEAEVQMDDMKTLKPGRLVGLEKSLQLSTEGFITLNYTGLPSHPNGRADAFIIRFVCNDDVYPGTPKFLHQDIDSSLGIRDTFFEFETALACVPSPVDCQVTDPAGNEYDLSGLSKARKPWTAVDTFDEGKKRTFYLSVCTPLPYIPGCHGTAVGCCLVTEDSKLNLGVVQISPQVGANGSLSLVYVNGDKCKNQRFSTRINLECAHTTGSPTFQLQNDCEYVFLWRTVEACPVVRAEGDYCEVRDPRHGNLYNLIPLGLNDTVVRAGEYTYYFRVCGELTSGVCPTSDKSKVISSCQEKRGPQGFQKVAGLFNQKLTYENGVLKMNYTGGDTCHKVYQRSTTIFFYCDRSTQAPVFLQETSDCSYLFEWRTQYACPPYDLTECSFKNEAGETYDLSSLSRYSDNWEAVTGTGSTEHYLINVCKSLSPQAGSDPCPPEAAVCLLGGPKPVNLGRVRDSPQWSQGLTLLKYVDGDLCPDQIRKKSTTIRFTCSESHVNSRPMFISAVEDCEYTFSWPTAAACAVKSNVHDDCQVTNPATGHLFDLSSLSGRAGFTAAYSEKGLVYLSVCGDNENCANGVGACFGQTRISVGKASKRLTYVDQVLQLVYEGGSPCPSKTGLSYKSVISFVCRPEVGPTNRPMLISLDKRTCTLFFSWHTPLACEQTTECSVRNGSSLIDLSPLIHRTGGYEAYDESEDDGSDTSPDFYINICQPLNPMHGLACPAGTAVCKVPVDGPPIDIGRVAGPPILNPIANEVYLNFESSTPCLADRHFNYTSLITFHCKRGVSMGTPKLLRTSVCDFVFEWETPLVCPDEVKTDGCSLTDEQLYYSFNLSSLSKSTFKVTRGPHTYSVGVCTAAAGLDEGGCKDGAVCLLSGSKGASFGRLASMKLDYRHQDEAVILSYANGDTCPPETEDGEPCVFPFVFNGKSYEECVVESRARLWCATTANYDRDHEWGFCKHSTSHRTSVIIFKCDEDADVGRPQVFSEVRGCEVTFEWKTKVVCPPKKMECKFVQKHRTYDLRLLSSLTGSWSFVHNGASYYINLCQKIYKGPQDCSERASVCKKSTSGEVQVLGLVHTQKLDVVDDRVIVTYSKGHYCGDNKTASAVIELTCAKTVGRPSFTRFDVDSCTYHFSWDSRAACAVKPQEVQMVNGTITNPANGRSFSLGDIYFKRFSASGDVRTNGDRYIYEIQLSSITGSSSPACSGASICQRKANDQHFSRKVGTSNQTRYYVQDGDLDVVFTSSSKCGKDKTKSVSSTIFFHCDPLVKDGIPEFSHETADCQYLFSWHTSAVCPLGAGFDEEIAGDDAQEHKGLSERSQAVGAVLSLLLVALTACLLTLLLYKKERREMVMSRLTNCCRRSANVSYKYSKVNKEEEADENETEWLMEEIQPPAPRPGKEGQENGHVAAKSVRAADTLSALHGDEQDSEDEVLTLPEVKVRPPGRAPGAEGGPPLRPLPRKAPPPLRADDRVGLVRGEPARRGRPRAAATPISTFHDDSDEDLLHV

percent of enzyme activity bound to the column [1] [%]	percent of enzyme activity bound to the column [2] [%]	Substance
93.1	86	zebrafish cathepsin K (Ctsk) from WT animals (enzyme)
–	17.2	zebrafish cathepsin K (Ctsk) from MLII (gnptab morphant) embryos (enzyme)
24.2	16	zebrafish cathepsin D (Ctsd) from WT animals (enzyme)
–	5	zebrafish cathepsin D (Ctsd) from MLII (gnptab morphant) embryos (enzyme)
